This is an account of results in the nanobody polyreactivity screen of Harvey et al. (2022).

The data set in a line: yeast display, Sf9 membrane polyspecificity reagent, FACS + sequencing; frameworks hold sequencing errors. The procedure, abridged:
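Galactose-induced (36–48 hours) yeast carrying a synthetic nanobody display library were exposed to 10% biotinylated, detergent-solubilized Sf9 membrane reagent at 4 °C for 1 hour. FACS followed streptavidin microbead enrichment, using low and high (top ~1%) gates for expression (anti-HA) and reagent binding (streptavidin). Colony PCR, MiSeq 2 × 250 sequencing and CDR-length filtering followed. Labels for polyreactivity reflect the gate of origin.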
For the sequence “QVHHEESGGGLVQAGGSLRLSCAASGGIFYLNDMGWYRQAPGKERELVAAITGTGGNTYYADSVKGRFTISRDNAKNTVYLQMNSLKPEDTAVYYCAAQHYWVTSYLSSYDYWGQGTQVTVSS”, the “polyreactivity (PSR sort gate)” value is reported as “low polyreactivity”.

Turning to “QVHHVESGGGLVQAGGNLRLSCQASGSTFDENDMGWYRQPQGKERELVAVISICTSTNYADSVKGRFTISRDNAKNTVYLQMNSLKPEDTAVYYFDAFVPGSYLDAIVGNAFNYWGQGTQVTVSS”, the “polyreactivity (PSR sort gate)” value was “low polyreactivity”.

On to “QVHIVESGGGLVQAGGSLRLICAASGRTFNGYVMGWYRQAPGKEREFVAVINWSGGNTYYADSVKGRFTISRDNAKNTVYLQMNSLKPEDTAVYYCAARRVRSYAYDYWGQGTQVTVSS”, for which the “polyreactivity (PSR sort gate)” value is “high polyreactivity”.

Consider “QVHIVESGGGLVQAGGSLRLSCADSGSIFLSNVMGSYRQAPGKERELVDDITRSGGSTYYADSVKGRFTISRDNAKNTVYLQMNSLKPEDTAVYYCNAYEYLSAGYDYWGQGTQVTVSS”, for which the “polyreactivity (PSR sort gate)” value is listed as “low polyreactivity”.

On to “QVHLEESGGGLVQEGGSHRLSCAASGGTFFSYDMGWYRQAPGKERELVAAISATGGSTYYADSVKGRFTISRDNAKNTVYLQMNSLKPEDTAVYYCNAYQESGTYLRMDYWGQGTQVTVSS”, for which the “polyreactivity (PSR sort gate)” value is “low polyreactivity”.

Consider “QVHLLESGGGLFQPGGSLRLSCAASGRIFTSYAMGWYRPAPGKESELVAAISWGGGRTYYADSVKGRYTISRDNAKNTVYLQMNSVKPEDTAVYYCAALIADRDSPYDYWGQGTQVTVSS”, for which the “polyreactivity (PSR sort gate)” value was “high polyreactivity”. The result for “QVHLLESGGGLVQAGGSLRLSCAAPGSTLFNYDMGWSRQAPGKERELLAAITTSGDSTYYADSVKGRFTISRDNAKNTVYFQMNSLKPEDTAVYYCNADVFKTVFYIDRYYYWGQGTKVTVSS” reads “low polyreactivity”. Consider “QVHLQESGDGLLQAVGSLRLSCAASGYISGYYYRGWYRQAPGKERELVAGIDAFGSSTNYADCVKGRFTISRDNSTNTVYLQMNSLKPEDTAVYYWAARPDGDRLFSYWGQGTQVTVSS”, for which the “polyreactivity (PSR sort gate)” value is “low polyreactivity”. With “QVHLQESGGGLVQAGGSLRLSCAASGTISDSGLMGWYRQAPGKERELVAGISSGGINNYADSVKGRFTISRDNAKYTEYLQMNSLKPEDTAVYWGQGTQVTLSS” the entry was “low polyreactivity”; with “QVHLQESGGGLVQAGGSLRLSCAASRTIFRISDMGSYRQAPGKEREFVAAITYGANTYYADSGKGRFTISRDNAKNSVYLQMNSLKADDTAVYYCAVPPVKETILDYWGQGTQVNVSS”, “low polyreactivity”; with “QVHLQESGGVQAGGSLPQSCAASGNISRSDVMGWYRQAPPKERELVATINNGTITYYADSVKGRFTISRDHAKNTVYLHMNSLKQEDTAVQYCAVVQSDTDSLYYWGQGTQVTVSS”, “low polyreactivity”. With “QVHLQESGSGLVQAGGSLRLSCAASGAIFPAYLMGWYRQAPGKERELVAGSSYGSITYCADSVKGRFNISRDNAKNTVYLQMNSLKPEDTAVYYCAVLRPGGDEYYYWGQGTKVTVSS” the entry was “low polyreactivity”; with “QVHLVDSGGGLVQAGGSLRLSCAASGSIIVFYAMGWYRQAPGKERELVAAITDSGSTNYADSVKGRFTISRDNAKNTVYLQMNSLKPEDTAVYYCDWSYYVLRRYRVARYDSGGQGTQVTVSS”, “low polyreactivity”.

For “QVHLVDSGGGLVQAGGSLRLSCAATGFTFWYYAMGWYRQAPWKERELVATITWNGGSTYYADSVKGRFTISRDNAKNTVYIQMNSLQPEDTAVYYCNKSYISSSSWQYYYWGQGTQVTVSS”, the “polyreactivity (PSR sort gate)” value was “low polyreactivity”.

For “QVHLVDSGGGLVQAGGSLRLSSADSGSTFAANAIGWYRQAPGKERELVAAITSSGGSTYYADSVKGRFTISRDNATNTVYLQKNSLKPEDTAVYYCNKDMERYVRIYDSWGQGSQVTVSS”, the “polyreactivity (PSR sort gate)” value is listed as “low polyreactivity”. “QVHLVDSGGGLVQAGGSLRLTCAASGSSFWAYVMGWYRQAPGKERELVAAISKSGVRTHYADSVKGRFTISRDNAKTTFYLQMNSLKPEDTAVYYFAAVGFGNLDDYWGQGTQVTVSS”: the “polyreactivity (PSR sort gate)” value is on record as “high polyreactivity”. The result for “QVHLVDSRGVLVQAGGSLRLSCAASGRTFFHYAMGWYRQAPGKERELVAAITYRGTSTYYADSVKARFTISRDYAKNTVYLQMNSLKPEATAVYYCNAYTTRGGWSYRGDSWGQGTQVTVSS” reads “high polyreactivity”; that for “QVHLVEAGGGLVQAGGSLRLSCAASACTFWPYARGLSSQAPGQDTELVAAMTSSGSTNYADSVKGRFTITRDNAKNTDYLQMNSLKPEDTAVNYCAADHRPSRFQSSVHLYYYWGQGTQVTVSS”, “low polyreactivity”; that for “QVHLVESAGGLVQAGGSLRLSSDSSGLIFYRYAMGWYRQAPGKERELVAAITSRSGRTYYADSVKGRFTFSRDNAKNTVYLQMNSLKPEDTAVYYCNAEWRSRYDYWGQGNQVTVSS”, “high polyreactivity”. As for “QVHLVESCGGLVQAGGSLRLSCAASGFTFYTYTMGWYRQAPGKERELVAVISRSGGSTYYADSVKGRFTISRDNAKNTVYLQMNSLKPEDTAVYYCNAGYWRFIDSYDYWGQGTQVTVSS”, the “polyreactivity (PSR sort gate)” value is “high polyreactivity”. With “QVHLVESCGGLVQAGGSLRLSCAASGSTFTYNVMGSYRQAPGKERELVAAISWSGGSTFYADSVKGRFTISRDNAKNTVYLQMNSLKPEDTAVYYCNKDHLVYPSEFYYWGQGTQVTVSS” the entry was “low polyreactivity”; with “QVHLVESCGGLVQAGGSLRLSCAASGSTIETYAMGWNRQAPGKDREMVATISLSGGRTYYADSVKGRFTISRDYAKNTVYLQMNSLKPEDTEVYYCNADGYGNVGGGDSWGQGTQVTVSS”, “low polyreactivity”; with “QVHLVESGAGLDQAGGSLSLSCAASGRNFSFNAMGSYRQAPGKVRELVASIRSGGSTNYADSVKGRFTISSDNAKNTVYLQMNSLKPEDTAVYYCAKRSTYWGWSSYGMDHWGQGTQVTVSS”, “high polyreactivity”.

In the case of “QVHLVESGAGLVQAGGSLRLSCAASGRVFYYYAMGWYRQAPGKEREFVATISWSGVRTYYADSVKGRFTISRDNAKNTVYLQMNSLKPEDTAVYYCNADYYSPKFPSGMNYWGQGTQVTVSS”, the “polyreactivity (PSR sort gate)” value was “high polyreactivity”. The result for “QVHLVESGAGLVQAGGSLRLSCAASGSTFAPNAMGWYRQAPGKERELVAAISSGGDSTNYADSVKGRFTISRDNAKNTVYLQMNSLKPEDTEVYYCAHGYWFVAYDYWGEGTQVTVSS” reads “low polyreactivity”. Regarding “QVHLVESGAGLVQAGGSLSLSCAASVFTLHVYALGWYRQAPGKERELVAALSTGGNTNYADSVKGRFTISRDNAKNTVYLQMHSLKPEDTAVYYCAASNRGATRRQVNYWGQGTQVTVSS”, the “polyreactivity (PSR sort gate)” value is reported as “high polyreactivity”.

Regarding “QVHLVESGGALVQAGGSLRLSCAASGFIFRKYAMGWYRQAPGKERELVAAISYRGASTYYADSVKGRFTISRDNAKNTVYLQMNSLKPEDTAVYYCADRYSNPWARVSGYDYWGQGTQVTVSS”, the “polyreactivity (PSR sort gate)” value is listed as “high polyreactivity”. The result for “QVHLVESGGGIVQAGGSHRLSCAATGRIFAPYAMGWYRQAPGKERELVAAISWSDVSTDYADSVKGRFTISRDNAKNTVYLQMNSLKPEDTAVSYCAAAYPGYRGWYYYWGQGTQVTVSS” reads “high polyreactivity”.

Turning to “QVHLVESGGGIVQAGGSLRLSCAASGFTFQYNAMGWYRQAPGKERELVAAISYSGTSTYYADSVKGRFTISRDNPKNTVSLQKNSLKPEETAVYYCAVPRLSGSPSAYGYYYWGQGTQVTVSS”, the “polyreactivity (PSR sort gate)” value is recorded as “high polyreactivity”. Consider “QVHLVESGGGIVQAGGSLRLSCAASGFTFTQYGMGWYRQAPGKEREFVATIRFSGDNTYYADSVKGRFTISRDNAKNTVYLQMNSLNPEDTAVYYCNADNRAFFVYPVSKRYDYWGQGTQVTVSS”, for which the “polyreactivity (PSR sort gate)” value was “low polyreactivity”. The result for “QVHLVESGGGIVQAGGSLRLSCAASGIIFMDNAMGWYRQAPGKERELVAAITTGGITYYADSVKGRFTISRDNAKNTVYLQMNSLKPEDTAVYYCAADNEWPRYDYWGQGTQVTVSS” reads “low polyreactivity”; that for “QVHLVESGGGIVQAGGSLRLSCAASGSTFGYYAMGWYRQAPGKERELVAAITTRGTRTYADSVKGRFTISRDNAKNTVYLQMNSLKPEDTAVYYCNAYEWGDFVLYTTDYDYWGQGTHVTVSS”, “high polyreactivity”; that for “QVHLVESGGGLDQAGGSLRLSCAASGRTFKSYTMGWYRQAPGKEREFVAAISSRGGNTYYADSVKGRFTISRDNAKNTVYLQMNSLKPEDTAVYYCAAESSYWSFPTYDYWGQGTQVTVSS”, “high polyreactivity”. Consider “QVHLVESGGGLDQAGGSLRLSSAASGFTFQKYAMGWYRQAPGTERELVAAISSSGGRTYYADSLNGRFTISRDNAKITVYLQMNSLKPEDTAVYYCAVRGSYRGWYDYWGQGTQVTVSS”, for which the “polyreactivity (PSR sort gate)” value was “high polyreactivity”.

Take “QVHLVESGGGLLQAGGSLRLSCAASGRTSDSNAMGWYRQAPGKETELVAAITISGVSTYYADTVKGRFTISRDNAKNTVYLQMNSLKPEDTAVYYCAKDPTFSSSFAVSLGFDSWGQGTQVTVSS”: the “polyreactivity (PSR sort gate)” value is “low polyreactivity”. In the case of “QVHLVESGGGLVEAGGSLRISCAAYGFIFGYNAMGWYRQAPGKERELVARINSGGNTNYADSVKGRFTISRDNAKNTVYLQMNSLKPEDTAVYYCARDASNRYDYWGQGNQVTVSS”, the “polyreactivity (PSR sort gate)” value is given as “low polyreactivity”. “QVHLVESGGGLVHAGGSLRLSCAASGIIFSYYAMGWYRQAPVKERELVAAISRSGVRTYFSDSVKGRFTISRDNAKNTVYLQMNSLKPEDTSVYYCNAEFSPYPYDYWGQGTQVTVSS”: the “polyreactivity (PSR sort gate)” value is reported as “high polyreactivity”.

As for “QVHLVESGGGLVHAGGSLRLSCAASGSTFDYYAMGWYRQEHGKERELVAAISSGGSTYYADSVKGSFTISRDNPKNTVYLQMNSRKPEDTAVYYCAAVYRGQFSRYDYWGQGTQVTVSS”, the “polyreactivity (PSR sort gate)” value was “low polyreactivity”. Turning to “QVHLVESGGGLVHAGGSLRLSCAASGSTFSYYTMGWYRQAPGKERELVAAITRRGDSTYADSVKGRFTISRDNAKNTVYLQMNSLKPEDTAVYYCAADASVGVSGMDYWGQGTQVTVSS”, the “polyreactivity (PSR sort gate)” value is listed as “low polyreactivity”. With “QVHLVESGGGLVHAGGSLRVSCAASGYTFHRYAMGWYRQAPGKERELVAAITRGGGSTRYADSVKGRFTISRDNAKYTVYLQMNSLKPEDTAVYYCAAERRTPGRTTYYYWGQGTQVSVSS” the entry was “high polyreactivity”; with “QVHLVESGGGLVKAGGSLRLSCAASGLTFSYYARGWSRQPPGKEMELVAANSWSGGSTYYADSVKGRFTISRDNAKNTVYLQMNSLKPEDTAVYDCAVRPSDGVIFSKGYDHWGQGTQVTVSS”, “low polyreactivity”.
